Data: patent US11299518B2, “Fusion respiratory syncytial virus inhibitors and use thereof” (priority 2016, dated 2022)
Values joined by “and” are separate entries in the source; they are usually repeats but may differ in a detail not shown here. Equal entries are not always repeated. Numbered stars: 1 amine (or outer) side, 2 acyl side, 3 side chain; on linkers, the order of the positions; unused ones are H or OH. Bridge positions count the residues as written; N and C are the ends. Square brackets hold non-standard residues; d marks the D form. Peptide text beside a SMILES is read from it. Nle(6-ylidene) = O=C([C@H](CCCC=[*:3])N[*:1])[*:2]; Gly(cPent) = N[C@H](C(=O)O)C1CCCC1; tBuAla = CC(C)(C)C[C@H](N)C(=O)O; R5 = C=CCCC[C@@](C)(N)C(=O)O; S5 = C=CCCC[C@](C)(N)C(=O)O

Key:
[1] = circular dichroism; conditions: 10 mM phosphate; pH 7.5; 25 °C; 50 uM
[2] = CD spectroscopy, percentage of helicity; type: physicochemical; conditions: CD at 222 nm, 10 mM phosphate buffer pH 7.5, 50 μM peptide, 25° C.
Description: The secondary structure of the peptides was then characterized by circular dichroism (DC) as described below.
The circular dichroism spectra were acquired on a Jasco J-810 and on a Chirascan spectropolarimeter. The samples were prepared in 10 mM phosphate buffer, pH 7.5, at a peptide concentration of 50 μM. Data were recorded at 25° C. by stepscan from 180 nm to 260 nm in a 0.1 cm pathlength quartz cell using 0.2 nm wavelength increments, 1 nm bandwidth and a response time of 0.5 sec. Each spectrum was an average of three measurements and was subtracted from buffer baseline. The data were converted to per residue molar ellipticity units [θ] (deg·cm2·dmol−1·residue−1) and smoothed using the Igor software. The percentage of helicity was calculated as it follows:
[formula] whereby CD222=molar ellipticity at 222 nm in [mdeg], N=number of amino acids in the peptide and C=peptide molar concentration [mol/l].

Compound | helicity [1] [%] | % helicity [2]
CC[C@H](C)[C@H](NC(=O)[C@H](CCCCN)NC(=O)[C@H](CCC(=O)O)NC(C)=O)C(=O)N[C@@H](CC(N)=O)C(=O)N[C@@H](CCC(N)=O)C(=O)N[C@@H](CO)C(=O)N[C@@H](CC(C)C)C(=O)N[C@H]1CCCC=CCCC[C@@H](C(=O)N[C@@H](CO)C(=O)N[C@@H](CC(=O)O)C(=O)N[C@H]2CCCC=CCCC[C@@H](C(=O)N[C@H](C(N)=O)C(C)C)NC(=O)[C@H](Cc3c[nH]cn3)NC(=O)[C@H](CC(C)C)NC(=O)[C@H](CC(C)C)NC2=O)NC(=O)[C@H](CCCNC(=N)N)NC(=O)[C@H]([C@@H](C)CC)NC(=O)[C@H](Cc2ccccc2)NC1=O (Ac-EKINQSL[Nle(6-ylidene)]FIR[Nle(6-ylidene)]SD[Nle(6-ylidene)]LLH[Nle(6-ylidene)]V-NH2; staple 8-12, 15-19) | 46 | –
CC[C@H](C)[C@@H]1NC(=O)[C@H](Cc2ccccc2)NC(=O)[C@@H](NC(=O)[C@H](CC(C)C)NC(=O)[C@H](CO)NC(=O)[C@@H]2CCCC=CCCC[C@@](C)(NC(=O)[C@H](CCC(=O)O)NC(C)=O)C(=O)N[C@@H]([C@@H](C)CC)C(=O)N[C@@H](CC(N)=O)C(=O)N2)CCCC=CCCC[C@@H](C(=O)N[C@@H](CO)C(=O)N[C@@H](CC(=O)O)C(=O)N[C@@H](CCC(=O)O)C(=O)N[C@@H](CC(C)C)C(=O)N[C@@H](CC(C)C)C(=O)N[C@@H](Cc2c[nH]cn2)C(=O)N[C@@H](CC(N)=O)C(=O)N[C@H](C(N)=O)C(C)C)NC(=O)[C@H](CCCNC(=N)N)NC1=O [Peptide 4ca2] (Ac-E[R5]IN[Nle(6-ylidene)]SL[Nle(6-ylidene)]FIR[Nle(6-ylidene)]SDELLHNV-NH2; staple 2-5, 8-12) | 58.1 | 58.1%
CC[C@H](C)[C@@H]1NC(=O)[C@H](Cc2ccccc2)NC(=O)[C@@](C)(NC(=O)[C@H](CC(C)C)NC(=O)[C@H](CO)NC(=O)[C@]2(C)CCCC=CCCC[C@@](C)(NC(C)=O)C(=O)N[C@@H]([C@@H](C)CC)C(=O)N[C@@H](CC(N)=O)C(=O)N2)CCCC=CCCC[C@@](C)(C(=O)N[C@@H](CO)C(=O)N[C@@H](CC(=O)O)C(=O)N[C@@H](CCC(=O)O)C(=O)N[C@@H](CC(C)C)C(=O)N[C@@H](CC(C)C)C(N)=O)NC(=O)[C@H](CCCNC(=N)N)NC1=O [Peptide 4ca16, X498 IN X501 SL X504 FIR X508 SDELL] (Ac-[R5]IN[S5]SL[S5]FIR[S5]SDELL-NH2; staple 1-4, 7-11) | – | >100%
CC[C@H](C)[C@@H]1NC(=O)[C@H](Cc2ccccc2)NC(=O)[C@@](C)(NC(=O)[C@H](CC(C)C)NC(=O)[C@H](CO)NC(=O)[C@]2(C)CCCC=CCCC[C@@](C)(NC(=O)[C@H](CCC(=O)O)NC(C)=O)C(=O)N[C@@H]([C@@H](C)CC)C(=O)N[C@@H](CC(N)=O)C(=O)N2)CCCC=CCCC[C@@](C)(C(=O)N[C@@H](CO)C(=O)N[C@@H](CC(=O)O)C(=O)N[C@@H](CCC(=O)O)C(=O)N[C@@H](CC(C)C)C(=O)N[C@@H](CC(C)C)C(=O)N[C@@H](Cc2c[nH]cn2)C(N)=O)NC(=O)[C@H](CCCNC(=N)N)NC1=O [Peptide 4ca18, E Xaa2 IN Xaa5 SL Xaa8 FIR Xaa12 SDELLH] (Ac-E[R5]IN[S5]SL[S5]FIR[S5]SDELLH-NH2; staple 2-5, 8-12) | 43 | 43%
CC[C@H](C)[C@@H]1NC(=O)[C@H](Cc2ccccc2)NC(=O)[C@@](C)(NC(=O)[C@H](CC(C)(C)C)NC(=O)[C@H](CO)NC(=O)[C@]2(C)CCCC=CCCC[C@@](C)(NC(=O)[C@H](CCC(=O)O)NC(C)=O)C(=O)N[C@@H]([C@@H](C)CC)C(=O)N[C@@H](CC(N)=O)C(=O)N2)CCCC=CCCC[C@@](C)(C(=O)N[C@@H](CO)C(=O)N[C@@H](CC(=O)O)C(=O)N[C@@H](CCC(=O)O)C(=O)N[C@@H](CC(C)C)C(=O)N[C@@H](CC(C)C)C(=O)N[C@@H](Cc2c[nH]cn2)C(=O)N[C@@H](CC(N)=O)C(=O)N[C@H](C(N)=O)C(C)C)NC(=O)[C@H](CCCNC(=N)N)NC1=O [Peptide 4ca-var1] (Ac-E[R5]IN[S5]S[tBuAla][S5]FIR[S5]SDELLHNV-NH2; staple 2-5, 8-12) | 89.3 | 89.3%
CC[C@H](C)[C@@H]1NC(=O)[C@H](Cc2ccccc2)NC(=O)[C@@](C)(NC(=O)[C@@H](NC(=O)[C@H](CO)NC(=O)[C@]2(C)CCCC=CCCC[C@@](C)(NC(=O)[C@H](CCC(=O)O)NC(C)=O)C(=O)N[C@@H]([C@@H](C)CC)C(=O)N[C@@H](CC(N)=O)C(=O)N2)C2CCCC2)CCCC=CCCC[C@@](C)(C(=O)N[C@@H](CO)C(=O)N[C@@H](CC(=O)O)C(=O)N[C@@H](CCC(=O)O)C(=O)N[C@@H](CC(C)C)C(=O)N[C@@H](CC(C)C)C(=O)N[C@@H](Cc2c[nH]cn2)C(=O)N[C@@H](CC(N)=O)C(=O)N[C@H](C(N)=O)C(C)C)NC(=O)[C@H](CCCNC(=N)N)NC1=O [Peptide 4ca-var2] (Ac-E[R5]IN[S5]S[Gly(cPent)][S5]FIR[S5]SDELLHNV-NH2; staple 2-5, 8-12) | 90.3 | 90.3%
Ac-FDASISQVNEKINQSLAFIRKSDELLHNVNAGKST-NH2 (N-terminus and C-terminus assumed) [Peptide T118, reference compound] | – | 23.4%
EFPS X486 EFD X490 SI X493 QVN X497 KIN (EFPSXEFDXSIXQVNXKIN; not fully specified; (S)-2-(4-pentenyl)alanine residues, likely stapled; comparative peptide 1eg; (1)..(1) N-term acetylated; (5)..(5) (S)-2-(4-pentenyl)alanine; (9)..(9) (S)-2-(4-pentenyl)alanine; (12)..(12) (S)-2-(4-pentenyl)alanine; (16)..(16) (S)-2-(4-pentenyl)alanine; (19)..(19) C-term amidated) [comparative peptide; X486, X490, X493 and X497 are (S)-2-(4-pentenyl)alanine, reference compound] | – | 35.3%
EKA Xaa4 QSL Xaa8 FI Xaa11 KSD Xaa15 LLHNV (Ac-EKA[S5]QSL[S5]FI[S5]KSD[S5]LLHNV-NH2; staple 11-15, 4-8 (inferred)) [Peptide V4bb499] | – | 24%
EKI Xaa4 A SL Xaa8 FI Xaa11 KSD Xaa15 LLHNV (Ac-EKI[S5]ASL[S5]FI[S5]KSD[S5]LLHNV-NH2; staple 11-15, 4-8 (inferred)) [Peptide V4bb501] | – | 12%
EKI Xaa4 Q A L Xaa8 FI Xaa11 KSD Xaa15 LLHNV (Ac-EKI[S5]QAL[S5]FI[S5]KSD[S5]LLHNV-NH2; staple 11-15, 4-8 (inferred)) [Peptide V4bb502] | – | 15%
EKINQSL Xaa8 FIR Xaa12 SD Xaa15 LLH Xaa19 V (Ac-EKINQSL[(S)‑2‑(4-pentenyl)glycine]FIR[(S)‑2‑(4-pentenyl)glycine]SD[(S)‑2‑(4-pentenyl)glycine]LLH[(S)‑2‑(4-pentenyl)glycine]V-NH2; staple 8-12, 15-19 (inferred); not fully specified; printed as EKINQSL Xaa8 FIR Xaa12 SD Xaa15 LLH Xaa19 V) [Peptide 4a2, Xaa8, Xaa12, Xaa15 and Xaa19 are (S)-2-(4-pentenyl)glycine; Formula (C7)] | – | 46%
EQSLAFIRKSDELLHNV (comparative peptide 3) [non-stapled native comparative peptide, reference compound] | – | 5.9% and 6.6%
